The values below come from patent US20220135687A1.

For assay [1], the target named is cynomolgus PD-L1 Fc-fusion protein (cynomolgus) (UniProt G7PSE7). In words: SPR, cyno PD-L1-Fc immobilised, antibody analyte. For orientation: Surface plasmon resonance follows binding to a sensor surface in real time, without labels.
The target of assay [2] is cynomolgus PD-L1 overexpressing stable cell line (cynomolgus) (UniProt G7PSE7). In words: FACS, cynomolgus PD-L1 cell line.
Sequence of cynomolgus PD-L1 overexpressing stable cell line (cynomolgus) (G7PSE7 entry or part of it limits assumed): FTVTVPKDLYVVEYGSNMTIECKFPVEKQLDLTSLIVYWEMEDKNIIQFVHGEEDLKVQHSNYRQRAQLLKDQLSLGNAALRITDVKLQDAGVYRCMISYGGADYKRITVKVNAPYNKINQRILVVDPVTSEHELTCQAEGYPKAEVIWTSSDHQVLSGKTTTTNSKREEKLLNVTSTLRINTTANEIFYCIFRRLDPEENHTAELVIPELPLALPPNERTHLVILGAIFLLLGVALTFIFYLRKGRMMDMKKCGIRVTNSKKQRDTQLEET

Sequence of Durvalumab (antibody) (VH): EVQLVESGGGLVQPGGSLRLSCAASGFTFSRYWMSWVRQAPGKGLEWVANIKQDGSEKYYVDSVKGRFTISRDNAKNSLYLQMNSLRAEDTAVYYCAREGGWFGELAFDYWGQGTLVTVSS
Sequence of Durvalumab (antibody) (VL): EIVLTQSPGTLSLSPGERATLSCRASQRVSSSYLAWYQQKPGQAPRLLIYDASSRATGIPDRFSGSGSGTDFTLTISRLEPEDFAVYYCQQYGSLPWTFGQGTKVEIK
Sequence of cynomolgus PD-L1 Fc-fusion protein (cynomolgus) (G7PSE7 entry or part of it limits assumed): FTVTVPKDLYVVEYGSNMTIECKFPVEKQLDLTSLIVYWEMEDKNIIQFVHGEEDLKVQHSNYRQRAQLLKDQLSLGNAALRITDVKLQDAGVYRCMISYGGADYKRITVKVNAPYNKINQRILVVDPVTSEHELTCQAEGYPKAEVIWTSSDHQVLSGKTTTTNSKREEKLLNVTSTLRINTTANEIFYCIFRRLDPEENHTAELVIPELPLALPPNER

With Durvalumab (antibody), in assay [1], the Kd amounted to 1.1 nM. Besides, in assay [2], the EC50 worked out at 3.07 nM and the Top (best-fit value) was 8220.

As a reminder, the Kd is the concentration at which binding is half-saturated. Low values mean higher affinity, high ones lower affinity. As a reminder, the EC50 is the concentration giving half of the maximal effect.
